Patent US20060014193A1, “Nucleoside phosphoramidates and nucleoside phosphoramidases” (priority 2004, published 2006)

What was measured:
[1] = substrate: NCCc1c[nH]c2ccccc12; assay: Phosphoramidase fluorescence assay; type: biochemical, E. coli; conditions: other: Table 5; pH 7.2; 25.0 °C
[2] = substrate: NCCc1c[nH]c2ccccc12; assay: Phosphoramidase fluorescence assay; type: biochemical, human; conditions: other: Table 5; pH 7.2; 25.0 °C
Protocol: The fluorescence of tryptophan (ex, 280 nm, em 360 nm) can be quenched when covalently attached to a nucleoside monophosphate, and nucleoside phosphoramidates of D- and L-tryptophan and tryptamine are excellent fluorescent substrates for hHINT1. Typically, after measurement of initial substrate fluorescence, hHINT1 was added to the reaction solution (HEPES buffer, pH 7.2, 25° C.) and the change in fluorescence over 2 min was determined by converting the slope into μM of substrate hydrolyzed per μg of enzyme per min with a standard curve. […] Based on the generation of chimeric polypeptides between the hHINTI and the hinT of E. coli, the preference for D enantiomers by the human HINT1 polypeptide is likely conferred by the C-terminus amino acids (e.g., the C-terminus 5, 6, 5 7, 8, 9, 10, or 11 amino acids) of the hHINT1 enzyme. […] In addition, both D-tryptophan phosphoramidates of cytosine and uridine were substrates. Initial rates were determined 10 during the first 10-20% of the reaction for variable substrate concentrations. The Michaelis-Menten constants, kcat and Km, for selected nucleoside phosphosphoramidates have been determined. (Table 4). As observed in the initial screening assay, for phosphoramidates containing L-tryptophan, hHINT1 has a 7-fold greater preference for AMP phosphoramidates of L-tryptophan than GMP.

B1: E. coli hinT (Escherichia coli K-12) (protein)
chain: MAEETIFSKIIRREIPSDIVYQDDLVTAFRDISPQAPTHILIIPNILIPTVNDVSAEHEQALGRMITVAAKIAEQEGIAEDGYRLIMNTNRHGGQEVYHIHMHLLGGRPLGPMLAHKGL
[1]
  Km: 30.1 ± 2.39 µM
  kcat: 0.45 ± 0.04 s⁻¹
  kcat/Km: 15000 M⁻¹ s⁻¹

B2: hHINT1 (Homo sapiens) (protein)
chain: MADEIAKAQVARPGGDTIFGKIIRKEIPAKIIFEDDRCLAFHDISPQAPTHFLVIPKKHISQISVAEDDDESLLGHLMIVGKKCAADLGLNKGYRMVVNEGSDGGQSVYHVHLHVLGGRQMHWPPG
[2]
  Km: 1.74 ± 0.22 µM
  kcat: 0.97 ± 0.11 s⁻¹
  kcat/Km: 558000 M⁻¹ s⁻¹
